Consider 1 molecule from doi:10.1101/2021.03.04.433768 (bioRxiv, 2021).

The target in this test is HexaPro, a prefusion construct of the SARS-CoV-2 spike (SARS-CoV-2, Wuhan-Hu-1 reference spike …, UniProt P0DTC2, stabilised). Put plainly: negative-stain EM.

B1: Nb56 (llama nanobody, monomer) (VHH)
VHH: QVQLQESGGGLVQAGDSLRLSCVASERTFRRYGMGWFRQAPGKEREFVAAVDRSHTKTGYADFVKGRFTISTNYENMVYLQMNSLKPEDTAVYYCAAPSYEKGSDPTSWNTDRGYDYWGQGTQVTVSS
Regarding B1, the binding result is recorded as “binds”.
